Reference: PMC11507749

Biological target: iLID-YFP-SNAP (2×Strep-iLID-EYFP-SNAP)
Experiment: light-induced membrane recruitment in GUVs

half-time of dissociation from the membrane in the dark: 61.2 s
half-time of dissociation in the dark: 41.8 s
Substance: mCherry-SspB(micro)
